Assay [1] addresses T1, ALK1-fragment crystallizable region (Fc), wild type ALK1 ectodomain (human, UniProt P37023 22-118).
T1 construct: also called ALK1-Fc; ALK1^ecto-Fc; not shown: Fc tag
In words: ApoB100 peptide array, fluorescence. On the procedure: FIG. 6 depicts mapping of ALK1 binding to ApoB100- In order to identify binding sites that mediate the interaction of ALK1 with the core LDL protein, Apo B100, peptide mapping experiments were performed. 4,563 different peptides (15 AA in length overlapped by 14AA) derived from the human ApoB100 sequence were arrayed and incubated with a control-Fc, and ALK1-Fc and binding events measurement by fluorescence. […] The AA sequence of binding for site 1 is SEQ ID NO: 4 QDDCTGDED, site 4 is SEQ ID NO: 5 […] and site 5 is SEQ ID NO: 6 HRDFSAEYEED.

Assay [2] concerns the target T1, ALK1-fragment crystallizable region …. Put plainly: substitution analysis of the 15mer peptide. An excerpt:
FIG. 7 depicts structure function analysis of Site 1. Site 1 was interrogated as a major N-terminal binding site for ALK1 on ApoB 100.

Assay [3] has the same target. In words: fluorescence polarization (Fp), recombinant ALK1-Fc and fluorescein labelled peptide. An excerpt: FIG. 8 depicts development of a fluorescence polarization (Fp) assay of ALK1 binding to ApoB100 peptide Site 1. In order to measure binding affinities of ApoB100 to ALK1 and to facilitate screening molecules that block this interaction, a Fp assay was developed using recombinant ALK1-Fc and an HPLC purified fluorescein labelled peptide, -SEQ ID NO: 8 […] with G being an N-terminal linker to fluorescein and the C-terminal L amidated.
For orientation: In fluorescence polarisation assays a small probe gives low polarisation when free and higher when bound to something large.

The target in assay [4] is T2, low density lipoprotein (LDL) (UniProt P04114 28-4563).
T2 construct: Lipoprotein particle, not a pure protein; also called DiI-LDL (fluorescently labeled)
T2 sequence (P04114 28-4563 limits assumed): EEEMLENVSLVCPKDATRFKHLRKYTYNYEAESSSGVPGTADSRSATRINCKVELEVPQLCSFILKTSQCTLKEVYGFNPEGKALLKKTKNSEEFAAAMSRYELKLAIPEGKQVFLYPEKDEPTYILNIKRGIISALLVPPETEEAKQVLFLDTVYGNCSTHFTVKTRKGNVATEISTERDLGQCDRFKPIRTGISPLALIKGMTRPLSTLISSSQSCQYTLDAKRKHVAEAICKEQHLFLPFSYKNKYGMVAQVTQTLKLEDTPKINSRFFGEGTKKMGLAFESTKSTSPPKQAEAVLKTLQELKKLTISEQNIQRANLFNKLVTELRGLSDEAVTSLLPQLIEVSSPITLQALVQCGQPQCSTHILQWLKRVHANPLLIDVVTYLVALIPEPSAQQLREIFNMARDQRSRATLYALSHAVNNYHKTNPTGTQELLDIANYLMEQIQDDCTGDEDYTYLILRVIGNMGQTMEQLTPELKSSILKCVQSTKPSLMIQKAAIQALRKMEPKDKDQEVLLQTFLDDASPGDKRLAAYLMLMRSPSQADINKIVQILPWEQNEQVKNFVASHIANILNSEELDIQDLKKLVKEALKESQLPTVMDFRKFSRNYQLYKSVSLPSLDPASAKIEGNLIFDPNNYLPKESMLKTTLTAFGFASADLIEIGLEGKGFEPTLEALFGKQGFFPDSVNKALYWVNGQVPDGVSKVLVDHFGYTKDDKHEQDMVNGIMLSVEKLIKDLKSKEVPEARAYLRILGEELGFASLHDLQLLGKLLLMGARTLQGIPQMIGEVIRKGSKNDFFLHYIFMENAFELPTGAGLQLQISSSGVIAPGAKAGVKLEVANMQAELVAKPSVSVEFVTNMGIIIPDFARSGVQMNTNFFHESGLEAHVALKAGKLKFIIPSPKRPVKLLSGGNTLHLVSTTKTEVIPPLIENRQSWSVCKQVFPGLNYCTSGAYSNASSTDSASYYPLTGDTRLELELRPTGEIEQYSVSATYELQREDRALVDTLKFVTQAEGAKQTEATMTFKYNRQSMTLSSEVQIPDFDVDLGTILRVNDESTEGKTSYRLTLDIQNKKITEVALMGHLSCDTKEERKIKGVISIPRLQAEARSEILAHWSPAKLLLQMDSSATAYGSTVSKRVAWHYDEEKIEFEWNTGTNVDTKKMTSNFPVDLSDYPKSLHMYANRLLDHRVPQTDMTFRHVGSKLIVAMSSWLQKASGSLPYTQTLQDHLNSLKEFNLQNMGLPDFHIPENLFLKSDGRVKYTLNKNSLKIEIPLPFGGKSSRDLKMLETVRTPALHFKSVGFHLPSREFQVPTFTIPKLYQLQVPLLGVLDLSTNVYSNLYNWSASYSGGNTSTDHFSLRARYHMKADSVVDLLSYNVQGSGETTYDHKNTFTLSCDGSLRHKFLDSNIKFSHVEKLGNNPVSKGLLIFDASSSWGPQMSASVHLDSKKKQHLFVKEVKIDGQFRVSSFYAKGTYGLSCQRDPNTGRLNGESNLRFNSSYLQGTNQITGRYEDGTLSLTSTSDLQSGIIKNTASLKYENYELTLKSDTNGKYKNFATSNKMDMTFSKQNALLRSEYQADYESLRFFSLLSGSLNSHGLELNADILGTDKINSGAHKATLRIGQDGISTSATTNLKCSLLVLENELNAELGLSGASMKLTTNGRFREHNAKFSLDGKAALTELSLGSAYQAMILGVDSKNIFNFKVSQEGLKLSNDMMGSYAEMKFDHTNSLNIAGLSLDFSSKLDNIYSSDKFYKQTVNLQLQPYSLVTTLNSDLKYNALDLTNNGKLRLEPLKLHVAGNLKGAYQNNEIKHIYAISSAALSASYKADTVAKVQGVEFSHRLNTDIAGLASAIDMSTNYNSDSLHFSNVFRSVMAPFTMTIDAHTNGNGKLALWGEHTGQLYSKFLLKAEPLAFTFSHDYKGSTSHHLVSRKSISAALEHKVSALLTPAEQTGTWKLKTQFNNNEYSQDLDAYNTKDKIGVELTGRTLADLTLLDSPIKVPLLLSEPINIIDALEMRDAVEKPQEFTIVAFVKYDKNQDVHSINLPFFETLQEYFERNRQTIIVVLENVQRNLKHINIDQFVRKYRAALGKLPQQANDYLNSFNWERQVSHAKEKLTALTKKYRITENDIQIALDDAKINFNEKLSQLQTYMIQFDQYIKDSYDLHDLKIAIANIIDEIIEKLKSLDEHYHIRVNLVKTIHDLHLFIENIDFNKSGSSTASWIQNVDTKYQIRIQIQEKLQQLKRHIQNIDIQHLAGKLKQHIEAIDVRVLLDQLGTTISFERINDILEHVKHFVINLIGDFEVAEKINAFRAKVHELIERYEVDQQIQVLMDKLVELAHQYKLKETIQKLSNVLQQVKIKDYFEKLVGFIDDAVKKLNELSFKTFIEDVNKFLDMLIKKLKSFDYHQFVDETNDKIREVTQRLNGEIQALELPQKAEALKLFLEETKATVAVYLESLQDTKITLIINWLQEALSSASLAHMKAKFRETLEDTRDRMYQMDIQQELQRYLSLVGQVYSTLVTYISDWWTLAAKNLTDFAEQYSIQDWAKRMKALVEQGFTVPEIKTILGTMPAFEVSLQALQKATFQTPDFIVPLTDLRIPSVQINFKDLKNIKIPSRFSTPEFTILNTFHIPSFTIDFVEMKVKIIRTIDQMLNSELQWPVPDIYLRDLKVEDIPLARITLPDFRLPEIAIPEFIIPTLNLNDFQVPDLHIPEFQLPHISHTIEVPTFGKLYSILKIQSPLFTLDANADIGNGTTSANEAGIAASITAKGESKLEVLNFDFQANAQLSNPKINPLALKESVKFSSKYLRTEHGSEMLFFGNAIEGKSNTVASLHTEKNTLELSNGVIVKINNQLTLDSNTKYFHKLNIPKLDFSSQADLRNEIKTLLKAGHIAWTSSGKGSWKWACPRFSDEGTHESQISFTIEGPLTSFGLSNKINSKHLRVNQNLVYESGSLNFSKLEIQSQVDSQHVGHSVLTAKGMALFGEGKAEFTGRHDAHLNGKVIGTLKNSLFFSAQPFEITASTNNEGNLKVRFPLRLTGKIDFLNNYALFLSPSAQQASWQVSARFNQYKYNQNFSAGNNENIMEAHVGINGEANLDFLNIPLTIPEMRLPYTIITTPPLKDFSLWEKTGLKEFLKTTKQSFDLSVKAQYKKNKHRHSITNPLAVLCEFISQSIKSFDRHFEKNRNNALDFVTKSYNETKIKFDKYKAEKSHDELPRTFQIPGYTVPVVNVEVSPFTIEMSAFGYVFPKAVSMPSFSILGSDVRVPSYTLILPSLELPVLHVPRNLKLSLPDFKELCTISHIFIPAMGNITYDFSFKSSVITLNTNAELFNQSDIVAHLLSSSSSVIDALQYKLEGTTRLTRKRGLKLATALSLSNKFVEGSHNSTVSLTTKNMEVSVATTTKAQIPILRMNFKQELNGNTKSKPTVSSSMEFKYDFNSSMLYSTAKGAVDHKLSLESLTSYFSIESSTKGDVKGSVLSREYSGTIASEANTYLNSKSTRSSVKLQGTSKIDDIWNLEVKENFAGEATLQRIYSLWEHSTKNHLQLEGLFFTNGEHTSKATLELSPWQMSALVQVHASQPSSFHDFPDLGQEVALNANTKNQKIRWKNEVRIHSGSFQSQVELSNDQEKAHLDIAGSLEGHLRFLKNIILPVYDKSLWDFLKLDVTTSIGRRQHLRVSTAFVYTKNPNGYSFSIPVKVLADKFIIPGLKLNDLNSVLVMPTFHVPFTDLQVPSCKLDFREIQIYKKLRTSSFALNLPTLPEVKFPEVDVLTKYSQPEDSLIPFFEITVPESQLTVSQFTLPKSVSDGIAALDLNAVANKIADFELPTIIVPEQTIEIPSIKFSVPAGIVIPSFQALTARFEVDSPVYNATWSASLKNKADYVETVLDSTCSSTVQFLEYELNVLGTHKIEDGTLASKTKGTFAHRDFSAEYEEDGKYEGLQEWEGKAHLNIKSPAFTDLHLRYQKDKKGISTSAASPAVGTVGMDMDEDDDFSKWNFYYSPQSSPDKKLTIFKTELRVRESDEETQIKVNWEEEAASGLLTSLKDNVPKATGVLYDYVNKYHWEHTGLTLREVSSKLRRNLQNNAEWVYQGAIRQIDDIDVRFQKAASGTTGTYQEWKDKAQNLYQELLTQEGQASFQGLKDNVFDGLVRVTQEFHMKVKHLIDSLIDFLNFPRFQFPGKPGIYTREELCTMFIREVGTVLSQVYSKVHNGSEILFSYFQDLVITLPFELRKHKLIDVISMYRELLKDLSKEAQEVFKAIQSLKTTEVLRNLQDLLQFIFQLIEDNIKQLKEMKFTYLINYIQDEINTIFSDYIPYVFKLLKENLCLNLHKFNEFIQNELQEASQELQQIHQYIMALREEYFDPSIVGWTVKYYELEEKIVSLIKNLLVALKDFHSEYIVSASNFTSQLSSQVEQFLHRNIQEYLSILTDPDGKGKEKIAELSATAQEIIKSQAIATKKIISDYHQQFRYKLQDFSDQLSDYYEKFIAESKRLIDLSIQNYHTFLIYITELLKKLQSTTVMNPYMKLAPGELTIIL
In words: SPR, LDL immobilized, Fc-tagged ectodomain as analyte; LDLR ectodomain as analyte. The text has this:
To directly examine protein-protein interactions between LDL and ALK1, surface plasmon resonance (SPR) was used with LDL immobilized to the chip and purified fragments of the Fc-tagged ectodomains for LDLR and ALK1 as analytes. […] To test if LDLR and ALK1 compete for binding to LDL, immobilized LDL was pre-bound with ALK1 or LDLR ectodomains, followed by the addition of the other ectodomain. The binding of […] was not altered when the LDL surface was pretreated with ALK1^ecto (FIG. 2C) or if LDL was pretreated with LDLR^ecto (FIG. 2D).
In general terms: In SPR one partner is held on a chip, and binding of the other changes the refractive index at the surface.

From patent publication US20210403549A1 (YALE UNIVERSITY, published 2021) come the findings set out here.

fluorescein = fluorescein (fluorescent label)

T1 sequence (P37023 22-118): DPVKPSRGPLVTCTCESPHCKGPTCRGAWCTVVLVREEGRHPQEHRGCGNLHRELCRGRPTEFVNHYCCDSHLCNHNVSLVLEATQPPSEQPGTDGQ

Regarding QDDCTGDED (also called QDDCTGDED) [ApoB100 Site 1], in assay [1], the binding result is “binds”.

EQIQDDCTGDEDYTY [ApoB100 Site 1 15mer peptide EQIQDDCTGDEDYTY]: the binding result in assay [2] was “binds”.

B1: fluorescein labelled ApoB100 peptide Site 1, GQDDCTGDEDYTYLIL (peptide)
peptide: fluorescein-GQDDCTGDEDYTYLIL-NH2
notes: also called HPLC purified fluorescein labelled peptide
In the case of B1, the Kd – broadly, a measure of binding affinity in units of concentration – in assay [3] was 2450 nM.

For RKRGLKLAT [ApoB100 Site 4], the binding result in assay [1] is on record as “binds”.

B2: Fc-tagged ectodomain of LDLR (Fc fusion, not shown: a dimerising Fc or GST)
chain: not shown
notes: extracellular domain; also called LDLR^ecto
For the molecule B2, in assay [4], the Kd is 7 nM.

For HRDFSAEYEED (also called HRDFSAEYEED) [ApoB100 Site 5], the binding result in assay [1] was “binds”.
